The DeepSol protein solubility set

Experiment: soluble on expression in E. coli; label from the status in PepcDB or PDB records

Sequence	soluble on expression in E. coli
MKKDNTVFNDLQASLKQAVAIRQGKMPPSRVFKVETVDVKATREKTHMSQTEFAKAIHVSVRTLQNWEQGHRNPTGPAVALLKIVASAPDIAVRALRTA	not soluble
MGSDKIHHHHHHVAKVPQRKLLLSEIQLGMRVKLPLSWTNHPFLFNRVDISSAAQIEMIRGLGVPYVLLLSELNPASEVVEEDENVEDEIAAEPERDLKADTRKAIRLSQKRFLENVNNCRNVFGKIVSDPEGAYRLSAALVEDLLSHLQEVEKPFLTLVGMDDSDVSVTQHGVSVAVLAMMMGHALDLSPRELRDIALGSLLHDIGKLKVPDVIRRKRGALTPHEANYLQMHPNFAYDMLNRSGLFPKEVLHIVLHHHEFIDGSGFPDGLTDHKIPITTQIVSLANDYDQQLSGQQISSPQVALGYLFKNRATKHAESLIAILVKILGIYPPGTIVRLSDDSVAKVMMTTKEVSQPQVWACKEDGSEASLRFLSDEGVTVQKAIKAEELSEGAIRTLQVDKGVSFYFSSLQT	not soluble
MSLDSGRNGGGPSVFRRDLLRSIGAAGLAGLAGCGGSEGVTDGDGTPAPTPVGNFPVSGDSVTFGFNVASSGAYSTAGKQEIRGFKLAVKHINNGGGWVTSEKYNSPLDGDGLLGKDVEFVVEDTGGSSDTARSNAQRLVDGEEVIMLAGGTSSSAGLANQEVAAQNQVIYMATMANTNSLTGADCNRYSFREMFNNHMAAEALAPALSDEFGKNANYVKIFQDNDWGQTLRDDMDAALGNVGWAPVWDTTAQVGTSDYSQYAADIKSVDFDVIVLGLGGLDAVNALRAFRDEFPESNIVLPMASREIAETAGGAIEGVIGTVAWSRAINSPLSNTFRETFREEYGSSTGSSKSAAPSGAAHIAYTQALQYASAVERAGTFNPIDVIGALEGHEYDAGLGPQTLRACDHQAMRQVPVVRGKSEIQQSYGTYYDLIGEPADVQYACDSGPAANCSLGGSEGHHHHHH	not soluble
MKRMHNPAHPGEVLREYLGELTVTNAAAKLGVSRVALSRILNGTNGISADMALRLEDALGTSAEMWAAMQFKYDLWVASQQPRPKITRLHV	not soluble
MPYIIPTFEEIRAAILRDVKNLLPDADTGPDSDAFIRASSTASAVYGLYQHQLWMARQILPDTADTAYLESHAALRGITRKPATKATGTLTLTGTPGAAVPAGTEARHIATGATFRTTATVTLAENGTASAPCEASVAGAMPDYTAETVLLTAPPPGVQSTASLALTGGTDTETDAELLERLLFHFRNPPGGGNRYDYKRWALEVPGVTGAWVYPLRRGLGTVDVAVLSAGGLPTPELLAAAQARIDERRPVACKDARVLAPTPLAVDVRVRVRLAGTTLPVVTTQVREALAAHFGGYEPGGQVVRSRLEAIISGIPGVADRDLTAPSANVQAVVDASRVEWPRLGTVTVEAMLEHHHHHH	soluble
MFETCEAIVMRTVDYGETNKIVTLFTREWGKVAAMARGAKKPSSRLSAVTQPLSYGHYVIRRSRGVGVLHQGELIDSMRALREDLFAAAYAVYIVELTDKSTEEQKRNPYLFELLLQTLQYMSEGRDLEILTFIYEMKMLAVLGIPPVLDRCARCGATEGRFSFSVKEAGFLCHRCEASDPHRFPLSSASVRLLRLFFHIDLARLGSISVKESTKMELGSVLSAYYDEYAGLSLKTKRFLQQIGELKDKLSPDGGQGASFSL	not soluble
MSLKMEDIAISITGYSYSNIKETIPDGVDKEEIAAVYEEIIDEYLQKGIPREIPALINVSGVPGAGKSTFCKKLLAMPENSSAIYIGFDAIMENERLPYIREEVNHAEEAFKRWELSARIAGYELLKRAIENKYLIIFDHSSALSQHIDLFNLLLSEGYEVHFNFIFIPEEEARRRAKNRKRYIPPYYIEERSKTLQYLLPEYKRICTTFKQIEPMRTRLIIARHGNTFRPEETPTRVGAKTDLPLVEEFKGRSIGRYLKEHDMIPDVIYAAPLLRTMQTARLAVQTIGLDSDISPLNAFVEIDYGVDENKTEEEVRLRLGNGNIEKGKKIIEDWDKNAVVPDGWKVDPDQIIHTWLDFAEKTVIPHQTTLLVTSNGIIRFAPYLTGDFEKFAQEHKIKVAPGGLCIFDKNDGDSFWTCSAWNVKPYELYADSEGHHHHHH	soluble
MGHHHHHHSHRLSPRDEYKPLDLSDSTLSYTETEATNSLITAPGEFSDASMSPDATKPSHWCSVAYWEHRTRVGRLYAVYDQAVSIFYDLPQGSGFCLGQLNLEQRSESVRRTRSKIGFGILLSKEPDGVWAYNRGEHPIFVNSPTLDAPGGRALVVRKVPPGYSIKVFDFERSGLQHAPEPDAADGPYDPNSVRISFAKGWGPCYSRQFITSCPCWLEILLNNPR	soluble
EVKLEESGGGLVQPGGSMKLSCATSGFTFSDAWMDWVRQSPEKGLEWVAEIRNKANNHATYYAESVKGRFTISRDDSKRRVYLQMNTLRAEDTGIYYCTGIYYHYPWFAYWGQGTLVTVSAEP	soluble
MELRVGNRYRLGRKIGSGSFGDIYLGTDIAAGEEVAIKLECVKTKHPQLHIESKIYKMMQGGVGIPTIRWCGAEGDYNVMVMELLGPSLEDLFNFCSRKFSLKTVLLLADQMISRIEYIHSKNFIHRDVKPDNFLMGLGKKGNLVYIIDFGLAKKYRDARTHQHIPYRENKNLTGTARYASINTHLGIEQSRRDDLESLGYVLMYFNLGSLPWQGLKAATKRQKYERISEKKMSTPIEVLCKGYPSEFATYLNFCRSLRFDDKPDYSYLRQLFRNLFHRQGFSYDYVFDWNMLKFGASRAADDAERERRDREERLRH	soluble
MEDFKKIVNNIRLKDTFDFKLAAFPNQNYDQLLPSQIYKNYYQGIEIQQHKYQNELDIKIINFLYPDGDFGSANKNGTLKLSLMLTDKKNNQVYYKLLEVSGFKSNPYGVDLEHHHHHH	not soluble
MKKMLVLLFVCLLVLAGCSSKSEPQGGGAAKKAEPKVMKMAVATSKDRSLTKGLYKFAEIVEKETNGSIKVEVYPDGQLGGDVAVFEALKMGTIQGSTMSTGPIASFAPRIGVLDLPFLFKDRETAYKVLDGKIGQDLLNDLPSVGVIGLNYWENGFRHLTNNKREVKSVDDIKGLKIRTLENDLHIDLWKELGATPVPMVFTELFTALEQHVVDGQENPVGNVAINKFYEVQKYLTKTGHVYNASPLLISKKFWDTLTDKEKDIIKKAAEEARDYQRKLNQEEDEKMFDYLKQQGMVITELSPEEKQKFVEKVQPIYQKYAPKFGQDLVNELINAGK	not soluble
MNVSFSTSSLSVSNSRTRLISFRETEHGDQKSSEEWKTSTKLEALGSMEGELAHLLSTCKPETLNHNKTELSGFRNLFARFLRAKPTVDWSKIEPLPEGAIRPYKSLGHVVDKELIASQLRKLVVVKLNGGLGTSMGCKGPKSVISVRNDLTFLDLTMQQIQTLNKTYGVDVPLVLMNSFNTNEDTQKVLKKYANVKVSVHTFSQSQYPRINRETLLPIVKSLEADDNECWYPPGHGNFYEAFHNSGLLDKFLADGKEYCFLSNIDNMGATVDLSILNFVLNPSPDQTAPEFLMEVTDKTRADVKGGTLIQYEGRLMLLEIAQVPKDYVDEFKSISKFRIFNTNNLWAKLDAMRKIVVENKLEMEVIVNPKHLDRGLDVIQLETAAGAAIKSFSGAVGVNVPRSRFLPVKKTSDLLLLMSNLYDIDNGSLTLSHQRSFPTTPLVKLGSSFDKVKDYLGRFNGIPDLLELDHLTVSGDVWFGKDVSLKGTVIIIANHGDRIDIPPGSILENKIVSGNLRILEH	not soluble
MGSDKIHHHHHHMMDFDFLEGKRLTEDVALDETMVWNEDIEMLDLHLVATSALIGVVHRVSYELLSRYLPNDYTAVVVETLARHVKAVPTGTRVAVGVRVVGVVGNRVKFRGIVMSGDEKILEAEFVRAIVPREKLRRLALEKAEKTSRLFGI	soluble
MVQELLKQLQNGEAKFADVLAYIESRFEHQPTAFKNGQQQNAATENQGSAKVFSLAQIEGLNQTETLSLFAEHYAAVLNTPEGTDHQNIRQFMQHGWDGVTFEGEALQAK	not soluble
GAMGPVDEQWIEILRIQALCARYCLTINTQDGEGWAGCFTEDGAFEFDGWVIRGRPALREYADAHARVVRGRHLTTDLLYEVDGDVATGRSASVVTLATAAGYKILGSGEYQDRLIKQDGQWRIAYRRLRNDRLVSDPSVAVNVADADVAAVVGHLLAAARRLGTQMSDT	soluble
MSPETMFFQDEDSRNLATNFIANYLKLWDANRSELMILYQNESQFSMQVDSSHPHLIESGNSGYSGSTDFGYYLNNSRNLTRVSSIKARMAKLSIGQEQIYKSFQQLPKTRHDIIATPELFSMEVYKFPTLNGIMITLHGSFDEVAQPEVDGSASSAPSGPRGGSRYHSGPKHKRIPLSKKSFDRTFVVIPGPNGSMIVASDTLLIRPYTSDFPWKVQK	soluble
MSLAQIKSLFATRLYHAPLSEHGPALDPAEFAASCYSIAEDDDAGQEWCEREGYPGYTSYASLTDLPWRFPIFADLVKSLDAHVAAFAEDLEFELDGKALRLEDIWINILPEGGVHGSHIHPHSVISGTTYVAMPEGTSALKLEDPRLPFMMAAPTRRKGAREELRTFRSVAPKVGDVLLWESWLRHEVPMNMAEEDRISVSFNYAWGEGHHHHHH	soluble
MKPVKSGLDSISKYLRTKKEVGRRKIGLLVDGPNILRKEFDVNLEEIRDVLKDYGNIKIGRVFLNQYASDKLVEAIENHGLEPIICSSDVDVRLAVEGMELVYNPNIDTLAIVTRDADFKPLLNKANEHGKETIIFGVEPGFSTALKNSADYVILMGKNHMSGYDDEDEEGKPDASERGEYHEEYPEDEYGESMEKT	not soluble
MKERVIITGANGQLGKQLQEELNPEEYDIYPFDKKLLDITNISQVQQVVQEIRPHIIIHCAAYTKVDQAEKERDLAYVINAIGARNVAVASQLVGAKLVYISTDYVFQGDRPEGYDEFHNPAPINIYGASKYAGEQFVKELHNKYFIVRTSWLYGKYGNNFVKTMIRLGKEREEISVVADQIGSPTYVADLNVMINKLIHTSLYGTYHVSNTGSCSWFEFAKKIFSYANMKVNVLPVSTEEFGAAAARPKYSIFQHNMLRLNGFLQMPSWEEGLERFFIETKSH	not soluble
MSLADKVVNIGFSGPLSGGAAAYGKDTLSGLQMAVDTLNKSGGIKVGNDKVTFKVVSLDDRYLPNETATNVKRLTGQDIQFIFVPHAGGIQAVQPLAIRDPEFLLVAYSSEPKILAANNPLTFMLPPRYDNYAQPFVATEMKTFGKKLALVGTSSAYGKQWADLIESEWKKQGGTVGRDNAVDYNTTVDFSAAVTKALSEKPDVLFIGGPSQPTALVIKAAREQGFKGGFIVMDQAKFEQMETVIPKNYLDGSVGVLPTRDFPGTQSFVVQYQRAYKKIPTSEAGLNYMGMNVLAKAMELAGTTSDPRKVRAQLDAAAKALPQSKTVYKVFGVTPQATWTPSEGHHHHHH	soluble
ASSKNLSETLFQNHKQAKETSSLTQYMPSSLELLDTRREQSSQAWYRNLRRLQWIWQGVDPVEQEEILARIASSKHSRTHDEWLDTVMGYRSGNWTYEWTRVGMLHQKQAAERQGEEAADQMFAAALYYSIAGYPHLRNDNLALQAQVLANNAYQEAAKLTGFVVKRLEFSYQNKKIAGYLHLRNTDSPKPVVLVSAGLDSLQTDMWRLFRDYLAKRDIAMLTIDMPSLGASSHWPLTEDSSCLHQAVLNQLADLPWVDHFRIGLIGFRFGGNAMARLAFLESDKVKACVSLGAPIHDIFTSPNKLAAMPKMYLDVLASRLGKNVVDVRSLSGQLMAWSLKVQGFMSGRRTKTPILALGLEGDPVSPYSDNQLVALFSQGGQAKKVKSKTISQGYEQSLDLAINWLEDELC	not soluble
MIASKMPREVRLPSFQIEIIGAMSTYKIYCQSLLPLSHSALLIMVAPSFPLLNLPEKSLKEVFCNMSVVQQTCISMISEKTKNLVRKFHIFKQVQIWLDFSDSLRCYMSLKGISLSIWHTPMWH	not soluble
